Assay results taken from the supplement of paper PMC9732359.
± gives the uncertainty stated by the source.

Assay: protein stability index of a GFP-peptide fusion (yeast GPS) (PSI 1-4); higher = more stable; sorted into four equal gates, so the index is relative within each strain
Summary of the method: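 Sequencing reads from sorted gates were used to score each peptide. The library consisted of tiled 17-residue yeast protein peptides fused downstream of GFP on a Cherry-expressing plasmid, pooled and carried in yeast. Mid-log cultures in leucine-free medium were split into four equal gates by GFP/Cherry ratio, and each gate's plasmids were PCR-amplified and Illumina-sequenced. The protein stability index adds up, over all gates, the read frequency multiplied by the gate number.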

Sequence | protein stability index (doa10∆) | protein stability index (pdr5∆) | protein stability index (san1∆) | protein stability index (ubr1∆)
VLNGQKIVVVRAEALNI [RPL16B] | 2.47 ± 0.14 | 3.15 ± 0.14 | 3.16 ± 0.11 | 3.11 ± 0.11
WNKRDFMAFINACAKYG [ISW2] | 1.21 ± 0.087 | 1.24 ± 0.092 | 1.34 ± 0.26 | 1.15 ± 0.063
KKLSKKYNAFIASEVLI [RPL1A] | 1.45 ± 0.026 | 1.9 ± 0.025 | 1.8 ± 0.052 | 1.67 ± 0.023
SGSAGANPAGASQPEPT [YJL041W/NSP1] | 2.9 ± 0.18 | 3.2 ± 0.13 | 2.93 ± 0.1 | 3.15 ± 0.1
KTKILEVAIRDVNLDVR [IRR1] | 2.58 ± 0.055 | 2.12 ± 0.065 | 2.38 ± 0.057 | 2.48 ± 0.052
KEFDETIFNLPKNKLVP [FAS1] | 3.5 ± 0.17 | 3.39 ± 0.18 | 3.59 ± 0.085 | 3.07 ± 0.2
YPFVTNDDIEWMLSICV [YJR042W/NUP85] | 2.29 ± 0.083 | 2.56 ± 0.061 | 2.67 ± 0.059 | 2.68 ± 0.058
FNTNFDDEFGDLDAVFF [SNF6] | 3 ± 0.076 | 2.96 ± 0.059 | 2.77 ± 0.054 | 3.01 ± 0.035
NPLIELTPIQKKIMDET [ITC1] | 2.67 ± 0.087 | 3.08 ± 0.08 | 3.24 ± 0.057 | 3.07 ± 0.076
SSLKESSPDTMKLTDLL [SNF12] | 3.09 ± 0.088 | 3.08 ± 0.083 | 2.71 ± 0.098 | 3.1 ± 0.076
SDNNSRIMSRNFYLKRF [SWI1] | 2.73 ± 0.066 | 2.67 ± 0.079 | 2.95 ± 0.099 | 3.09 ± 0.063
NLENHFKKSKIDHINEE [SCL1] | 2.74 ± 0.072 | 3.16 ± 0.075 | 2.64 ± 0.065 | 2.58 ± 0.047
LVESVDRFKPNLDIAKD [MED4] | 3.37 ± 0.29 | 3.33 ± 0.17 | 3.15 ± 0.072 | 2.9 ± 0.15
TGLKLYSRITLIIDDPS [RPP1] | 2.22 ± 0.065 | 2.8 ± 0.077 | 2.17 ± 0.062 | 2.75 ± 0.086
TETFEKPQRTNTLRMKH [RPB2] | 3.05 ± 0.16 | 3.21 ± 0.14 | 3.16 ± 0.1 | 3.05 ± 0.12
SLAKSSALWSSRKGIAF [ECM29] | 1.9 ± 0.069 | 1.88 ± 0.14 | 1.83 ± 0.12 | 1.59 ± 0.15
DDDERVEYNLFTNRSTM [BRN1] | 2.97 ± 0.12 | 3.2 ± 0.12 | 3.11 ± 0.07 | 3.1 ± 0.068
GRPETYIWRYLPAPPVC [RPO31] | 1.5 ± 0.18 | 1.57 ± 0.12 | 1.17 ± 0.16 | 2.02 ± 0.1
ATMSVFLQRIDFQIDGN [RRI2] | 2.92 ± 0.081 | 2.99 ± 0.066 | 2.95 ± 0.059 | 3.29 ± 0.058
TQAAEFLSPYISTHLKT [IRR1] | 1.96 ± 0.039 | 2.32 ± 0.059 | 2.03 ± 0.073 | 2.21 ± 0.043
SPTINRANVYVGFLVQL [PRP8] | 2.6 ± 0.065 | 1.89 ± 0.066 | 1.98 ± 0.1 | 2.1 ± 0.063
EIAQANSRNAIRKLVKN [RPL19A] | 2.9 ± 0.15 | 3.01 ± 0.083 | 2.86 ± 0.11 | 3.1 ± 0.098
GRKHVAALRTVKSLVDN [RPL9A] | 2.99 ± 0.12 | 3.17 ± 0.079 | 2.91 ± 0.092 | 2.96 ± 0.071
RNQVQTENVAQARIILN [YGR119C/NUP57] | 3 ± 0.1 | 2.9 ± 0.092 | 3.01 ± 0.05 | 2.78 ± 0.042
DRVAKVLTYPEKVTRYN [RPO31] | 2.87 ± 0.12 | 2.92 ± 0.14 | 2.94 ± 0.29 | 2.98 ± 0.17
VGSPLTVSILQESSSLR [POP8] | 3.21 ± 0.078 | 3.01 ± 0.057 | 3.01 ± 0.063 | 3.1 ± 0.042
QNVNVPSAFNFTGNNST [YOR098C/NUP1] | 2.56 ± 0.049 | 2.89 ± 0.06 | 2.77 ± 0.037 | 2.84 ± 0.053

Sequence | protein stability index (doa10∆) | protein stability index (pdr5∆) | protein stability index (san1∆) | protein stability index (ubr1∆)
MKVEELIIDGFKSYATR [SMC2] | 3.45 ± 0.19 | 3.21 ± 0.08 | 3.11 ± 0.063 | 3.22 ± 0.096
VPLIKVADAKQLGEWAG [RPS12] | 3.17 ± 0.21 | 3.49 ± 0.23 | – | 3.17 ± 0.12
SKQQAKGAFQKVAATSR [RPL24A] | 2.52 ± 0.043 | 2.99 ± 0.045 | 2.84 ± 0.036 | 2.8 ± 0.038
RSLLQEAIETCKNFEKT [GAL11] | – | 3.14 ± 0.15 | 2.59 ± 0.19 | 3.09 ± 0.081
KNTQSPQTPLVEPVTER [SNU114] | – | 2.87 ± 0.15 | 2.72 ± 0.097 | 3.01 ± 0.13
EEKPDVTYSDVGGCKDQ [RPT1] | 3.48 ± 0.16 | 3.65 ± 0.19 | 3.04 ± 0.23 | 3.41 ± 0.11
PDDDKIVPLTEGDIQVL [RPT1] | 3.21 ± 0.097 | 3.22 ± 0.1 | 2.7 ± 0.07 | 3.01 ± 0.052
SPLQKEEALNFDISMAD [SSN2] | 3.23 ± 0.058 | 3.07 ± 0.057 | 3.18 ± 0.07 | 3.25 ± 0.058
YDGVERVSLQDIKDFAD [QCR2] | 2.84 ± 0.1 | 2.75 ± 0.1 | 2.5 ± 0.076 | 2.41 ± 0.089
ANVLDPSLRKLIESGIG [BRR2] | 1.87 ± 0.064 | 2.38 ± 0.071 | 2.47 ± 0.095 | 2.56 ± 0.045
AQTIGRNSKTVREFLEK [PRE6] | 2.76 ± 0.2 | 3.27 ± 0.29 | 3.29 ± 0.07 | 3.02 ± 0.14
GRLASTIAKQVLNGQKI [RPL16B] | 3.42 ± 0.28 | 2.69 ± 0.11 | – | 2.58 ± 0.13
QFQRLAPSLTVPPIASP [PRE2] | 2.14 ± 0.053 | 2.03 ± 0.049 | 1.85 ± 0.055 | 2.15 ± 0.038
LGHTKAALGEVASMELK [SIR2] | 2.79 ± 0.085 | 2.96 ± 0.077 | 3.23 ± 0.064 | 2.98 ± 0.12
TRQASDLASSKEVLAKI [RPN5] | 2.92 ± 0.11 | 2.96 ± 0.06 | 2.99 ± 0.077 | 2.85 ± 0.076
SRYEPKVFDCGDNIVMS [PRE7] | 2.49 ± 0.12 | 2.78 ± 0.11 | 2.89 ± 0.11 | 2.06 ± 0.23
LSILKGDYSQATVLSRK [RPN5] | 3.08 ± 0.07 | 3.02 ± 0.06 | 3.03 ± 0.075 | 2.72 ± 0.056
KEQTIQLPSKFTCSCNS [RPN14] | 2.15 ± 0.065 | 2.53 ± 0.057 | 1.96 ± 0.063 | 2.16 ± 0.038
HDVLQKLNTLSEILSFD [YML103C/NUP188] | 2.99 ± 0.068 | 3.2 ± 0.067 | 3.03 ± 0.051 | 3.14 ± 0.041
CVNLSLFDARFERKNPH [SRB8] | 3.2 ± 0.089 | 3.16 ± 0.061 | 3.34 ± 0.083 | 3.17 ± 0.053
EQTVSAVTEATSTNGDS [RGR1] | 3.45 ± 0.16 | 3.29 ± 0.077 | 3.28 ± 0.083 | 3.43 ± 0.12
NGIPLKSKERSSQFVRL [YMR129W/POM152] | 2.75 ± 0.15 | 2.6 ± 0.14 | 3.22 ± 0.096 | 2.85 ± 0.075
LESINEGNQIIVFVHSR [BRR2] | 1.76 ± 0.073 | 1.88 ± 0.064 | 1.62 ± 0.066 | 1.76 ± 0.071
EILGINLANEQPVLEKP [SIR4] | 3 ± 0.068 | 3.2 ± 0.052 | 3.21 ± 0.045 | 3.11 ± 0.046
ALVAYTPTDVIGVVSLT [RRP6] | 1.96 ± 0.091 | 1.57 ± 0.054 | 1.37 ± 0.11 | 1.93 ± 0.072
FDDNDSGNNYNDINISS [MED2] | 3.08 ± 0.037 | 3.19 ± 0.039 | 3.05 ± 0.038 | 3.151 ± 0.028
